The source of these data is patent US20230174623A1 (MIT, published 2023).

Assay [1] has as its target T1, bovine serum albumin (plate blocked with BSA) (bovine, UniProt P02769 25-607).
T1 construct: Specificity control surface
Nature of the assay: ELISA on a plate blocked with bovine serum albumin, anti-His-HRP detection.

Assay [2] concerns the target T2, collagen type I (collagen I coated 96 well-plates, Gibco).
T2 construct: also called collagen type 1
Nature of the assay: ELISA on collagen I, anti-His-HRP. In general terms: In an ELISA, binding on a coated surface is turned into a signal by an enzyme label.

Assay [3] deals with T2, collagen type I (collagen I coated 96 …). Nature of the assay: ELISA on collagen I after thawing from frozen, with excipients; data not shown.
Assay [4] addresses T3, CRP-XL-biotin (crosslinked collagen related peptide, biotinylated) (O represents hydroxyproline (all O positions); C-terminal amide (NH2); chains crosslinked to lock the helical structure; biotinylated (site not stated)).
T3 construct: also called CPP-XL-biotin; soluble collagen peptide mimic
Nature of the assay: kinetic dissociation at 37 C on yeast, MFI of bound CRP-XL-biotin during competition with excess CRP-XL, one-phase exponential decay fit.

For assay [5], the target named is T2, collagen type I (collagen I coated 96 …). Nature of the assay: ELISA, collagen I coated plate, anti-6xHis-HRP detection.
The target in assay [6] is collagen type IV (collagen IV coated 96 well-plates, Corning). The assay is described as follows: ELISA, collagen IV coated plate, anti-6xHis-HRP detection.
collagen type IV (collagen IV coated 96 well-plates, Corning), sequence (P02463 173-1669, chain 1 of 2): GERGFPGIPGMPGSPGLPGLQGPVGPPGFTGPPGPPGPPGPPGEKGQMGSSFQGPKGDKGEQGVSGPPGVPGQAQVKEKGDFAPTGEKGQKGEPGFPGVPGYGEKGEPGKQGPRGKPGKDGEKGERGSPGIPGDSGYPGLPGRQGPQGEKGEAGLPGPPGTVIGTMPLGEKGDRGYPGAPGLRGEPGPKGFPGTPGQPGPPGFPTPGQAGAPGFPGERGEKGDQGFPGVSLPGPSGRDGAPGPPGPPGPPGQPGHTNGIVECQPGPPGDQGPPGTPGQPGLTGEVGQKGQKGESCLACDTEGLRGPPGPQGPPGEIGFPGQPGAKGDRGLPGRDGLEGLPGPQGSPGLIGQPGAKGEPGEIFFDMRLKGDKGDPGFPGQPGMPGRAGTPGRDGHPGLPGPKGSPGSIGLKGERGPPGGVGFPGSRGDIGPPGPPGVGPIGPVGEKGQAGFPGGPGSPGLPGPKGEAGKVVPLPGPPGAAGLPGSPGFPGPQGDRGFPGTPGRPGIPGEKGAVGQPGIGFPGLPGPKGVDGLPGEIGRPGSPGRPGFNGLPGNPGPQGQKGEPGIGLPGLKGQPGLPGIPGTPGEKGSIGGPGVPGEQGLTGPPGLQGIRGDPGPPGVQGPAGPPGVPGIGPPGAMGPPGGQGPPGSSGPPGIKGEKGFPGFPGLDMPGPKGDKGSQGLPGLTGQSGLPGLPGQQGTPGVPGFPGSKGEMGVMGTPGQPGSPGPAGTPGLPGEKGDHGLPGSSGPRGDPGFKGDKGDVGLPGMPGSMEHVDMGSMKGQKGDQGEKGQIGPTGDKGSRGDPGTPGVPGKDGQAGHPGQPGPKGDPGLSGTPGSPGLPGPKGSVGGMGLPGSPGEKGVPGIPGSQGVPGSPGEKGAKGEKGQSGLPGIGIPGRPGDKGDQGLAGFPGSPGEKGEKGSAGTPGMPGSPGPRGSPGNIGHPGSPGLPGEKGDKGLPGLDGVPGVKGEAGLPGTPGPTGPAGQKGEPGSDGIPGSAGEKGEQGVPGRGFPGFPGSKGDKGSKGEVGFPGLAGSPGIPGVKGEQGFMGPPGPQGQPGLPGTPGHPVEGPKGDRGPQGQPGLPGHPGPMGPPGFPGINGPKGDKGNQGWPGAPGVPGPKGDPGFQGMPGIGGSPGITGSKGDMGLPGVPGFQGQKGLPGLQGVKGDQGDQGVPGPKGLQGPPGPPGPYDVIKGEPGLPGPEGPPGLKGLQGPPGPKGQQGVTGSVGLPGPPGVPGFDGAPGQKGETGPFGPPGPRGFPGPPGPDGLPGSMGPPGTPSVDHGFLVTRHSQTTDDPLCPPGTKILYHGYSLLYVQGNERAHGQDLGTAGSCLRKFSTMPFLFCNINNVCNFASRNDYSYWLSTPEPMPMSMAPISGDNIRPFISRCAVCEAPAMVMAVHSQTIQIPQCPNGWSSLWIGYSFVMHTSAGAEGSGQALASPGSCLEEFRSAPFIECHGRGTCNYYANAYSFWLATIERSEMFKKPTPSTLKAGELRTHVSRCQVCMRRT
collagen type IV (collagen IV coated 96 well-plates, Corning), sequence (P08122 184-1707, chain 2 of 2, further chain): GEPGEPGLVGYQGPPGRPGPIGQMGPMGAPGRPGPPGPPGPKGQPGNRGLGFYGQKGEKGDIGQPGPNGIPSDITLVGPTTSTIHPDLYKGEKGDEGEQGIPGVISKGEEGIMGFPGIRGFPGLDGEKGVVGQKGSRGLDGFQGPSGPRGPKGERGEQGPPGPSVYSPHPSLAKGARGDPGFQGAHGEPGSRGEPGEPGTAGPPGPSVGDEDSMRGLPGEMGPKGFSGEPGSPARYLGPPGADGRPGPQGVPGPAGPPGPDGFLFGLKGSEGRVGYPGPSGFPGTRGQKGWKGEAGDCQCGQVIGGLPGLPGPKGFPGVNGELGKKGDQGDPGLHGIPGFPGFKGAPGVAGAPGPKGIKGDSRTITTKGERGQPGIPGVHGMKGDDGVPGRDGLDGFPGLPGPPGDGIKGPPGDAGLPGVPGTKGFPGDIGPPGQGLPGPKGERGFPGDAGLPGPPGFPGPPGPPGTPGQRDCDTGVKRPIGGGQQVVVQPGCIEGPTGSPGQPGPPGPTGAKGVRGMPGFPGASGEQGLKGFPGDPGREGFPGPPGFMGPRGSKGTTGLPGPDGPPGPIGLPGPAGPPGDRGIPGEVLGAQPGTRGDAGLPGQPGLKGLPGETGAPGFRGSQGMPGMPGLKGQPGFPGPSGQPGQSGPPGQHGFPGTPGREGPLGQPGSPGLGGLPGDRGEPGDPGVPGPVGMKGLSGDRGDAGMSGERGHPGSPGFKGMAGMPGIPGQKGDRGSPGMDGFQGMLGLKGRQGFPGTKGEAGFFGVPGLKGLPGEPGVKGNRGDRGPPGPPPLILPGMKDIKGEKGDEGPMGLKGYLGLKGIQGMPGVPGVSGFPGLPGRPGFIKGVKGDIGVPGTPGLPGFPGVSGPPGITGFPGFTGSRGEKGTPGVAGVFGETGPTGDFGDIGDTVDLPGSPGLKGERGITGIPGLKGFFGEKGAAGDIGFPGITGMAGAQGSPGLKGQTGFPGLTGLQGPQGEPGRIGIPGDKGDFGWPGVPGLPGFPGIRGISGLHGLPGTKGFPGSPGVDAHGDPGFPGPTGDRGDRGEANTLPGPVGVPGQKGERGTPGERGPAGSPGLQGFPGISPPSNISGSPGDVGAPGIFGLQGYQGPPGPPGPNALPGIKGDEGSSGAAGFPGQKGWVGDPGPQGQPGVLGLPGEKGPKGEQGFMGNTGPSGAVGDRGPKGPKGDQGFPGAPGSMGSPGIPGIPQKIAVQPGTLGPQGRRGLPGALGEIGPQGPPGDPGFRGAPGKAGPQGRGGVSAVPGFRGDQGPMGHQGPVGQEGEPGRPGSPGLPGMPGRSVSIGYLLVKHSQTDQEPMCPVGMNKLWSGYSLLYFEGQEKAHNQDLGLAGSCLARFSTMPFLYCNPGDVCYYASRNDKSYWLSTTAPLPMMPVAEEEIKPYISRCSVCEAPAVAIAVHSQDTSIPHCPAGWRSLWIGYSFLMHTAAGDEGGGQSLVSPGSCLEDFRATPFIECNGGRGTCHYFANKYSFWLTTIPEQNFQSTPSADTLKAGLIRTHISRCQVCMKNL
For assay [7] the target is unchanged. The assay is described as follows: ELISA on collagen IV coated plate, anti-6xHis-HRP.
In assay [8] the target is T2, collagen type I (collagen I coated 96 …). The assay is described as follows: ELISA on collagen I coated plate, anti-6xHis-HRP.
Assay [9] has the same target. The assay is described as follows: competition ELISA on collagen I; 50 nM biotinylated lumican detected with streptavidin-HRP, rmLAIR1 varied.

T2 sequence (P02454 152-1207, chain 1 of 2): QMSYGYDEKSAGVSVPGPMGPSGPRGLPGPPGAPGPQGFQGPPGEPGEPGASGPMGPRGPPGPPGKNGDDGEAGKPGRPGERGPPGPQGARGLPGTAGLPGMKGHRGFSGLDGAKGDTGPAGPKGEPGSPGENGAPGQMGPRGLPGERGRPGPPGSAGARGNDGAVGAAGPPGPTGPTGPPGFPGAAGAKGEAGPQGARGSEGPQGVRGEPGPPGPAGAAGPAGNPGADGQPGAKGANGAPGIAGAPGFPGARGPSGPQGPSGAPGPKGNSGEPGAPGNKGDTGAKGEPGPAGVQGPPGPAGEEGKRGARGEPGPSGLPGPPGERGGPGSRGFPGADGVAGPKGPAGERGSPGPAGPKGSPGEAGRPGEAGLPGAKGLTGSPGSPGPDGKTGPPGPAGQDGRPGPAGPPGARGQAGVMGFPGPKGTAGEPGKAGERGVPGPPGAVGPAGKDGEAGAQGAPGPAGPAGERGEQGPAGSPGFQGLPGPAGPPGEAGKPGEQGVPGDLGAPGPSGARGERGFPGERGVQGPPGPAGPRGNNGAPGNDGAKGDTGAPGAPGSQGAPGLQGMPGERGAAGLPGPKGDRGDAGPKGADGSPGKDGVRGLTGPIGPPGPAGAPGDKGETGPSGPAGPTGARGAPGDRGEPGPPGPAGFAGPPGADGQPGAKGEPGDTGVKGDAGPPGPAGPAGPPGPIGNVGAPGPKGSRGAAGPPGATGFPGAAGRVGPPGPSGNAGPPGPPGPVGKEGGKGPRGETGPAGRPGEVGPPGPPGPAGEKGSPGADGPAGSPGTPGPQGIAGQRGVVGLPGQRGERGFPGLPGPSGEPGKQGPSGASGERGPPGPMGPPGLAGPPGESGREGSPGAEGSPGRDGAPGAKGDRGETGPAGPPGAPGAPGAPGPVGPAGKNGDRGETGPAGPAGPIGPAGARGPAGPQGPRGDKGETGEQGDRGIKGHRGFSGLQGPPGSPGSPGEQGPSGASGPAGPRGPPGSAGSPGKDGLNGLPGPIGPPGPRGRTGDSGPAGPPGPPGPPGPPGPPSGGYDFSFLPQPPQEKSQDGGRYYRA
T2 sequence (P02466 86-1125, chain 2 of 2, further chain): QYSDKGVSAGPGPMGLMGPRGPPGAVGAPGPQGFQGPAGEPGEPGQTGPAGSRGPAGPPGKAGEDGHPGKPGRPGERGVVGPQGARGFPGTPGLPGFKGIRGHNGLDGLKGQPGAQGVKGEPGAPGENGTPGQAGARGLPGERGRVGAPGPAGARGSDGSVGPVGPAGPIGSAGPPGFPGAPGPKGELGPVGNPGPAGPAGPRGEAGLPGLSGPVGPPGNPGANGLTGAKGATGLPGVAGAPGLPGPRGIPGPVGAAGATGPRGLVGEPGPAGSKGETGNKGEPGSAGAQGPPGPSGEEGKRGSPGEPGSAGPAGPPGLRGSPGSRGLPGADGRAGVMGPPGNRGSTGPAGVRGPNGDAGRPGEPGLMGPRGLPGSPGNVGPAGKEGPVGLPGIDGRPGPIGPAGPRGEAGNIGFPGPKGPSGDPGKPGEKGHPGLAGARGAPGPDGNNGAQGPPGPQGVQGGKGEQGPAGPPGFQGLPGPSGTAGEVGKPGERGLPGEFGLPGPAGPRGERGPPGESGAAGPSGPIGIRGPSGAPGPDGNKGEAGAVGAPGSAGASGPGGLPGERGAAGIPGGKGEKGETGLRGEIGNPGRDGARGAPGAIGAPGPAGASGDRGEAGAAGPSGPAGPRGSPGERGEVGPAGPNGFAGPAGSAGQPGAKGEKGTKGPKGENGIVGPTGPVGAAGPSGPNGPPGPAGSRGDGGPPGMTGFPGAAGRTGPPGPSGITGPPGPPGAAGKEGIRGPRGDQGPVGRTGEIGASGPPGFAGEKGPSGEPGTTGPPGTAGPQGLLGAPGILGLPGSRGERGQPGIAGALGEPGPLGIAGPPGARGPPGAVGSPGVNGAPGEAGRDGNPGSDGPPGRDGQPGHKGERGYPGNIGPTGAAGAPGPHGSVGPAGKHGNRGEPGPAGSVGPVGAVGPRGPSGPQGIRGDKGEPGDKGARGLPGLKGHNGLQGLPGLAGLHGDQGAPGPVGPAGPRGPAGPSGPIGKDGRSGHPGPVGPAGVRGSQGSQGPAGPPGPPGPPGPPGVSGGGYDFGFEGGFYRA

B1: His-tagged biotinylated lumican (other)
chain: QYYDYDIPLFMYGQISPNCAPECNCPHSYPTAMYCDDLKLKSVPMVPPGIKYLYLRNNQIDHIDEKAFENVTDLQWLILDHNLLENSKIKGKVFSKLKQLKKLHINYNNLTESVGPLPKSLQDLQLTNNKISKLGSFDGLVNLTFIYLQHNQLKEDAVSASLKGLKSLEYLDLSFNQMSKLPAGLPTSLLTLYLDNNKISNIPDEYFKRFTGLQYLRLSHNELADSGVPGNSFNISSLLELDLSYNKLKSIPTVNENLENYYLEVNELEKFDVKSFCKILGPLSYSKIKHLRLDGNPLTQSSLPPDMYECLRVANEITVNGGGSHHHHHH
modifications: biotinylated (site not stated)
notes: also called Lwt-His-b; Lwt-HIS-b
In the case of B1, the binding result in assay [1] is listed as “no binding”. Besides, the concentration giving a half-maximal response (EC50 (read off the curve)) (as a rule, the midpoint of the concentration-response curve) in [2] is about 20 nM.

B2: lumican (purified His-tagged murine lumican, not biotinylated) (other)
chain: B1 chain
notes: also called Lwt
In the case of B2, the “fold reduction of binding affinity if lumican was not warmed to 37° C. prior to measurement” value in [3] is about 50 fold.

B3: LAIR30.2.K1.B displayed on yeast (Aga2 fusion with c-myc tag) (receptor)
chain: QEGSLPDITIFPNSSLVISQGTFVTVVCSYSDKHDLYNMVRLEKDGSTFMEKSTAPYKTEDEFEIGPVNETITGHYSCIYSKGITWSERSKTLELKVIKENVIQTPAPGPTSDTLWLKTYSIY
notes: not shown: Aga2 protein of yeast, display anchor of the pCTCON2 vector; c-myc tag after the LAIR gene
For B3, the koff – broadly, the first-order rate constant of dissociation – in assay [4] stood at 4.17e-06 s⁻¹.

B4: Lumican-Gluc (His-tagged murine lumican fused to Gaussia luciferase) (other)
chain: QYYDYDIPLFMYGQISPNCAPECNCPHSYPTAMYCDDLKLKSVPMVPPGIKYLYLRNNQIDHIDEKAFENVTDLQWLILDHNLLENSKIKGKVFSKLKQLKKLHINYNNLTESVGPLPKSLQDLQLTNNKISKLGSFDGLVNLTFIYLQHNQLKEDAVSASLKGLKSLEYLDLSFNQMSKLPAGLPTSLLTLYLDNNKISNIPDEYFKRFTGLQYLRLSHNELADSGVPGNSFNISSLLELDLSYNKLKSIPTVNENLENYYLEVNELEKFDVKSFCKILGPLSYSKIKHLRLDGNPLTQSSLPPDMYECLRVANEITVNGGGSGGGSGGGSKPTENNEDFNIVAVASNFATTDLDADRGKLPGKKLPLEVLKEMEANARKAGCTRGCLICLSHIKCTPKMKKFIPGRCHTYEGDKESAQGGIGEAIVDIPEIPGFKDLEPMEQFIAQVDLCVDCTTGCLKGLANVQCSDLLKKWLPQRCATFASKIQGQVDKIKGAGGDGGGSHHHHHH
notes: Expressed in HEK293 cells, 56.6 kDa; also called Lum GLuc
As for B4, the Kd (usually the concentration at which binding is half-saturated) stood at 130 nM in [5] and 600 nM in assay [6]. Also, the “EC50 (read off the curve)” value in [7] and in [8] was about 60 nM in each case.

B5: extracellular domain of His-tagged murine LAIR-1 (receptor)
chain: QEGSLPDITIFPNSSLMISQGTFVTVVCSYSDKHDLYNMVRLEKDGSTFMEKSTEPYKTEDEFEIGPVNETITGHYSCIYSKGITWSERSKTLELKVIKENVIQTPAPGPTSDTSWLKTYSIYHHHHHH
notes: The entry includes the C-terminal His tag; Expressed in HEK293 cells; also called mLAIR1-His; mLAIR1
As for B5, the “IC50 (read off the curve)” value in [9] was about 300 nM. In addition, in [1], the binding result is given as “no binding”. Further, the concentration for a half-maximal effect (EC50 (read off the curve)) in [2] is about 20 nM.

B6: ColG s3a/s3b-Gluc (bacterial collagenase ColG domains s3a/s3b fused to Gaussia luciferase, His-tagged) (other)
chain: PITKEMEPNDDIKEANGPIVEGVTVKGDLNGSDDADTFYFDVKEDGDVTIELPYSGSSNFTWLVYKEGDDQNHIASGIDKNNSKVGTFKSTKGRHYVFIYKHDSASNISYSLNIKGLGNEKLKEKENNDSSDKATVIPNFNTTMQGSLLGDDSRDYYSFEVKEEGEVNIELDKKDEFGVTWTLHPESNINDRITYGQVDGNKVSNKVKLRPGKYYLLVYKYSGSGNYELRVNGGGSGGGSGGGSKPTENNEDFNIVAVASNFATTDLDADRGKLPGKKLPLEVLKEMEANARKAGCTRGCLICLSHIKCTPKMKKFIPGRCHTYEGDKESAQGGIGEAIVDIPEIPGFKDLEPMEQFIAQVDLCVDCTTGCLKGLANVQCSDLLKKWLPQRCATFASKIQGQVDKIKGAGGDGGGSHHHHHH
notes: Expressed in HEK293 cells, 46.1 kDa; also called ColG-Gluc; ColG s3s/s3b-Gluc
In [5], B6 showed an equilibrium dissociation constant (Kd) of 139 nM.
